From patent publication US20030144483A1 (Bristol-Myers Squibb, published 2003)

Experiments:
[1] = biological target: human FcγRI on cells (monocytes, IFN-γ-treated neutrophils, U937 cells) (human) (UniProt P12314); test: flow cytometry, FITC antibody on monocytes, average of duplicates
[2] = biological target: T1, soluble fusion protein consisting of the extracellular domain of human FcγRI and human IgM heavy chain … (human, UniProt P12314 16-292; P01871 106-453); test: ELISA on captured sFcγRI-µ, in excess human IgG1 lambda
T1 construct: From supernatant of transiently transfected COS cells, captured on plates with goat anti-human IgM; also called FcRI/IgM fusion protein; FcγRI/IgM heavy chain fusion protein
T1 sequence (P12314 other isoform, or with tags, fused parts or gaps): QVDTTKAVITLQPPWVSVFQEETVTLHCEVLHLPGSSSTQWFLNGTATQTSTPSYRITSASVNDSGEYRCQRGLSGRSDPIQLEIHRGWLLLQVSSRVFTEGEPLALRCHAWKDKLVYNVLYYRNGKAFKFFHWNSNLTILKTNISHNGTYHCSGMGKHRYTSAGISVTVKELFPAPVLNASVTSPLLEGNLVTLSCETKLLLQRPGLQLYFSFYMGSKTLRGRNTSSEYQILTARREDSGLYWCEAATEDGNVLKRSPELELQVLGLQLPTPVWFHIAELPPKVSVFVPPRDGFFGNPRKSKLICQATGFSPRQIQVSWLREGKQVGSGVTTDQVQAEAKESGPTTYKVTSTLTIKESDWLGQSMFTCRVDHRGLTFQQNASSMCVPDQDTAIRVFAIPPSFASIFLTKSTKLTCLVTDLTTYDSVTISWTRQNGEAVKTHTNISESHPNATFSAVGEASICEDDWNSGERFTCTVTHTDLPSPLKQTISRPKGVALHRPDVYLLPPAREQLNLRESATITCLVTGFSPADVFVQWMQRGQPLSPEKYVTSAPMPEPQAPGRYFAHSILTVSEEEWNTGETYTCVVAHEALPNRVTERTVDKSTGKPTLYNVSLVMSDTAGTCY
Protocol: The binding of the antibodies to antigen was measured by ELISA. Wells of a microtitre plate (Immunlon 1, Dynatech, Chantilly, Va.) were coated with 200 ng goat anti-human IgM antibodies (Sera-lab, Crawley Down, U.K.) in 100 μl 50 mM carbonate buffer pH 9.6 at 37° C. for at least one hour. Wells were emptied and washed once with PBST and blocked with 1% BSA in PBS at room temperature for thirty minutes. The wells were emptied and washed with PBST and Cos supernatant containing FcRI/IgM fusion protein was added and incubated for one hour at room temperature. Wells were then emptied and washed three times with PBST and test antibodies diluted in 1% BSA/PBS were added and incubated for one hour at room temperature. In addition, each well contained 2 μg human IgGI, lambda antibody (Sigma, Poole, U.K.) The wells were then emptied, washed three times with PBST and 40 ng peroxidase goat anti-human kappa constant region antibodies (Sera-Lab, Crawley Down, U.K.) in 100 μl 1% BSA/PBS added to each well. After incubation for one hour at room temperature, the wells were emptied, washed three time with PBST and 10 μl HPD substrate buffer was added.
The wells of a microtiter plate were coated with goat anti-human IgM antibodies (Sera-Lab, Crawley Down, U.K.) in 50 mM bicarbonate buffer, pH 9.6. […]

Chain of human FcγRI on cells (monocytes, IFN-γ-treated neutrophils, U937 cells) (human) (P12314 16-374): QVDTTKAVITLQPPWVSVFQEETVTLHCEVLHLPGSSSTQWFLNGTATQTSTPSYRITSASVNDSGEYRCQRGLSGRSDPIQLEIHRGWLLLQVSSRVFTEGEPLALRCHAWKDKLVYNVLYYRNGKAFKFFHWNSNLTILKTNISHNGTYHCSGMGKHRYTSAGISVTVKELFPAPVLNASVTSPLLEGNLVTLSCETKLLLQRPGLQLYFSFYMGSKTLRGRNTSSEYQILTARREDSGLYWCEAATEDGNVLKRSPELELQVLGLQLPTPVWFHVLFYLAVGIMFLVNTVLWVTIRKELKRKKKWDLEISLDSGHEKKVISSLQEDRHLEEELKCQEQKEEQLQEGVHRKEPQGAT

Molecule: humanized mAb 22, KOL VH/REI Vκ mAb, designated H22 (antibody)
- antibody sites per cell (monocytes) (antibody sites per cell) [1]: 10500

B1: humanized NEWM VH/REI Vκ mAb (antibody, human IgG1, V domains shown)
VH: QVQLQESGPGLVRPSQTLSLTCTVSGFIFSDNYMYWVRQPPGRGLEWIGTISDGGSYTYYPDSVKGRVTMLRDTSKNQFSLRLSSVTAADTAVYYCARGYYRYEGAMDYWGQGSLVTVSS
VL: DIQLTQSPSSLSASVGDRVTITCKSSQSVLYSSNQKNYLAWYQQKPGKAPKLLIYWASTRESGVPSRFSGSGSGTDFTFTISSLQPEDIATYYCHQYLSSWTFGQGTKVEIK
notes: Human IgG1 and human kappa constant regions; also called NEWM/REI based antibody; NMVK/HuVK
- fold lower affinity than the chimeric mAb [2]: ~5 fold
